According to the supplement of paper PMC12042874:
± gives the uncertainty stated by the source.

Experiment: amyloid nucleation score (Sup35N fusion, yeast selection) (log enrichment); library NNK1; higher = more nucleation; inactive = no reads after selection
Procedure, shortened: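 In psi-negative yeast, Sup35N fusions carrying peptides of 20 random codons were induced with 100 μM copper sulfate for 24 hours. The cells then grew 7 days at 30°C on medium lacking adenine and uracil, and plasmid inserts from input and output were Illumina-sequenced, excluding sequences with under 100 input reads. Nucleation score is the DiMSum log enrichment of output over input reads, centred on the mode score of non-aggregating sequences.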

Substance	amyloid nucleation score
SACALSYYCGWISRCSYLCP	-0.158 ± 0.63
SACGVIRRLSAGYNCFYVK	0.229 ± 0.51
SAGGHSLSVTYWSGCSLRTV	0.272 ± 0.23
SAGSVADRGCLFSLRRASKC	0.851 ± 0.78
SAHITDVLHKMWRNNTTTWY	1.15 ± 0.55
SAICRYVF	0.768 ± 0.66
SAKGIME	1.03 ± 0.45
SALRTCKFN	0.826 ± 0.56
SALYNAGCKLCLFTS	0.004 ± 1.1
SAQSTILICLHKGLDMSERH	5.8 ± 0.077
SASEIPALSTTGSNGMDEVI	-0.249 ± 0.54
SASPLVAMDNVGCA	-0.748 ± 0.37
SAVINFLRSQKLLNCGMGVT	-0.529 ± 1.7
SAWKDAYFRVDVNEDFVS	0.154 ± 0.32
SCAAILEDVVHSAHILYLSH	-0.92 ± 0.96
SCARFITTNNQDSRLVASSN	-0.718 ± 0.77
SCATVPCKM	0.53 ± 0.63
SCILS	inactive
SCKCLTSTGGGSGDRKGWNG	0.916 ± 0.55
SCLKSDVYVCCEDLRRLDCV	-0.453 ± 0.38
SCLNNKSPSLI	-0.342 ± 0.25
SCMTLLRFKRMEDLK	2.45 ± 0.19
SCNDTI	-0.172 ± 1.5
SCNSIGTCTLFKLHSLLS	0.701 ± 0.51
SCNVFGASWRLTVNDVWYKW	0.651 ± 0.22

Substance	amyloid nucleation score
SCNYWCERVQGNSLWVGWVH	-0.126 ± 0.35
SCPAGFCCAGANKYHVLGV	-0.137 ± 0.56
SCPKVITNVLSSKTYPRMVG	1.11 ± 0.34
SCRTLANITLCPRSIQF	0.055 ± 0.65
SCSWFFTYIVVAVNTLSISY	-0.444 ± 0.75
SCTLYYTSGSIMYAVMVLQE	0.526 ± 0.49
SCTVLWDKFDRLLWCSK	inactive
SCVQRVLSIVNSFGRRSQTR	0.269 ± 0.43
SCVRCQLS	7.454 ± 0.05
SCYDVIVRWDFFLQQFCKMQ	1.73 ± 0.12
SDALPVYVEFREGGKSRGWT	-0.916 ± 1.1
SDDLGE	-0.301 ± 0.39
SDEGLYPYLHLTFKTSTLWK	0.201 ± 0.66
SDGWCRLRCES	-0.429 ± 0.59
SDLDVRAWQSLVSWIYRFPS	0.18 ± 0.37
SDMLYLQLVKLASWFHFNLK	-0.199 ± 0.38
SDPYDPRIVVVRIKLLLVME	-0.153 ± 1.4
SDQDTGLHTLPCHTRS	inactive
SDQNWMVPQDGPSPTSYLDD	-0.102 ± 1.5
SDYILCIPWPSGLS	0.734 ± 0.97
SDYRRPKEPVSS	3.01 ± 0.16
SEEGGNTASNRVDWYTTGIV	0.95 ± 0.48
SEEGMCSSMGVD	inactive
SEHRMASRHVNPRPGGKDCR	-1.54 ± 2.7
SEHVIIGRRDFV	-0.018 ± 1

Substance	amyloid nucleation score
SELFWMVGMGSLSSRYNSPF	2.37 ± 0.087
SELWDLG	-0.197 ± 0.85
SERVMEWGTLKLYDSVHCVL	-1.55 ± 2.7
SEWGSQSSGAGSFTMV	-1.35 ± 2.4
SFALLTQLNEYKTARMKRAG	0.64 ± 0.35
SFANVGSVGWAMYSGYTSRT	0.002 ± 0.84
SFAVCGKLDHWCPCSAITLV	1.08 ± 0.64
SFESYEH	1.29 ± 0.9
SFFDLSEA	0.918 ± 1.1
SFFDVLFKITWYNRVLMC	0.362 ± 0.79
SFIPKVGCKKEPARRASGNV	0.413 ± 1.4
SFIYTSPGFCWRDMFDWQVP	0.339 ± 0.32
SFLKVGFL	-0.399 ± 1.1
SFLRGMASWLTQMHGKGWGW	0.239 ± 0.69
SFLSSGINRSRCY	0.154 ± 0.32
SFSGYMLDCGEHTQMYSASI	0.185 ± 0.35
SFSRFVVMMKGIRAGKSSHT	0.156 ± 0.72
SFVFAVWFW	0.181 ± 0.83
SFVVHVICGHVCSWSFSVWF	0.178 ± 0.33
SGAPYS	0.185 ± 0.34
SGCPDPW	-0.047 ± 1.7
SGEDVSGCQDLFALVPMGQG	0.495 ± 0.51
SGFAVLKIVMAFHLTLEHQF	0.479 ± 0.67
SGFIGS	-1.33 ± 1.3
SGKLLISCVYSLENMC	1.39 ± 0.72

Substance	amyloid nucleation score
SGMCNIQPQTCQ	-0.351 ± 0.39
SGMGMSPLMMIWCRSSNRDL	inactive
SGMSGCPKCGSWGSNKWYLW	-0.004 ± 0.44
SGMYRTNTAMFSFYDTTIVI	-0.091 ± 0.84
SGNCSVSW	0.755 ± 0.97
SGPHGRFDARSMLAIL	-0.773 ± 0.64
SGSRGMFSKCVDK	1.86 ± 0.1
SGTDLRISNHAT	inactive
SGVSVVEGYHRSRVACRSVM	-0.158 ± 0.52
SGVVE	-0.433 ± 0.39
SGYDDFWMTWTAKRVWHRAR	-0.436 ± 0.64
SHCYSLGMLKVWLGQIKTFG	1.8 ± 0.27
SHELVKHGYKY	-0.436 ± 0.47
SHGNLYGHHERLNSTRNPES	-1.14 ± 0.9
SHIGIFEGFYVYLPYDCITM	inactive
SHIMRRFLWVELAQ	-1.18 ± 1.1
SHPNRTCKWLHSSVLRTPVL	0.313 ± 0.49
SHQSDGNWQMVYWCLLVRFT	-0.709 ± 0.56
SHTYG	0.06 ± 0.59
SIASIIRRFNWDTK	3.87 ± 0.095
SICFYSLNSTPSLVGSWWGG	1.3 ± 0.85
SICSFLFR	3.69 ± 0.093
SIDCLCYYAPRLFRMHVELT	-0.656 ± 0.89
SIFVFRLYFLYGLV	0.606 ± 0.44
SIGRLIPYFNQTPFCIS	-0.338 ± 0.23

Substance	amyloid nucleation score
SILMIMMTLSSVQRLMLTGS	-0.161 ± 0.71
SIMPWNLSVRSMWRFWMNLR	inactive
SIPRGFLLVLLVDNPTIRLQ	-0.358 ± 0.32
SIQNPLNLVDNLPTT	-0.114 ± 0.21
SIRLYETHSLT	0.885 ± 0.14
SISVNTFLRPQLRWM	6.509 ± 0.061
SITADLGHNSVALGVALLVI	-0.057 ± 1.7
SIYDARRMVRVHTFHEGLL	-0.577 ± 1.4
SIYHYCRDIRDCRMSRLELG	0.572 ± 0.33
SIYIVNSLALVGMGLMSNYG	2.81 ± 0.23
SKAKYGESSVWRVGLMGCF	-1.06 ± 0.83
SKCLMNS	-1.26 ± 1.7
SKFSISRTHNSHLSYSGLGG	0.056 ± 0.5
SKGFDDESTAGSFFKLMLLY	-1.9 ± 2.4
SKRLLQL	-0.665 ± 0.87
SKSSRTFLVFSLVWVYNLLM	1.73 ± 0.19
SKSYLVFDNISRRH	-1.11 ± 0.7
SKTGRGTLVMEVSRCEVYDF	0.027 ± 1.7
SKVNISSYNSCFVRKGCQCR	6.328 ± 0.046
SLCTFLGFWGHVFSLRVNRL	-0.156 ± 1.1
SLDRYIREHK	0.635 ± 0.84
SLDYLIFPVLDDGKKYMFVM	1.33 ± 0.46
SLESS	0.642 ± 0.62
SLFHLNFTIRWVDHAADSLV	1.98 ± 0.56
SLGVYGQGSGWMLVVNVWEV	1.97 ± 0.24

Substance	amyloid nucleation score
SLIRIVSS	0.372 ± 0.52
SLKVTAPTQMGQCVVGGVYH	-0.279 ± 0.88
SLNFPLLSQPAPIFVLSDKG	0.974 ± 0.76
SLPFVTS	-0.319 ± 0.71
SLQHGYVVYVIVFLDATSNT	-0.186 ± 0.86
SLRCQFTSLLSMVCGCSLYG	0.807 ± 0.93
SLRFQSYRAWSMGWKLDDSC	0.821 ± 1.1
SLRITLVWGRMQCGPESVCR	0.745 ± 0.24
SLRMLCRLPSRKDRSWTDML	0.6 ± 0.32
SLSAPLNTLVFVVYIQWWEM	0.321 ± 0.71
SLSWEAYRSLLS	1.1 ± 0.23
SLSYFSSFI	inactive
SLVMKVPLFECVCIGMCGRA	0.448 ± 0.52
SLVSGSVGCLGRYQFRESKP	0.422 ± 0.45
SLWIKQLRERVANFLAGFEG	inactive
SLWITFLPLIGLSAVRRRVR	-1.24 ± 1.4
SLWVWRNAWLVHLYRL	-0.206 ± 0.54
SLYKMVMCNGYSCLLLYLVC	0.353 ± 0.97
SLYYEG	0.867 ± 0.45
SLYYGGLQER	-0.02 ± 0.29
SMAGEFWSVLFFCESIWGGD	4.83 ± 0.12
SMCTCLRMGRLPIQVFSWSG	-1.52 ± 2.7
SMGRLP	-1.05 ± 1.5
SMGVMSCNMSWSSAWCVMCV	0.289 ± 0.42
SMGWYGYFLYLNCDDSFPYW	3.79 ± 0.069

Substance	amyloid nucleation score
SMLDNDTSNMLEMPIGMYVA	inactive
SMRIFMMLQWYRGSNLCFFH	0.537 ± 1.1
SMRRAI	-0.263 ± 1.4
SMSCVVHRGSSASCWMFYRN	0.784 ± 0.37
SMSHVWL	-1.25 ± 1.5
SMVLFGRISWIGEVLLL	4.99 ± 0.089
SMVLKTTDAGDNLHSKCNML	-1.09 ± 0.68
SMYFQRP	0.53 ± 0.26
SMYVYDRGTGILLSCGVYFF	1.82 ± 0.11
SNALVFNFSRHAFVNIVFVY	4.04 ± 0.13
SNATVGQPRYNVRTGKAGCE	0.351 ± 0.48
SNEVSGLVCQLTNVVYLLGL	4.89 ± 0.052
SNFGCFYCLLIPRNKKLGLG	1.67 ± 0.47
SNFGIIYM	inactive
SNLLTCPKYFVVTFFCL	0.211 ± 0.26
SNMSHLNRG	0.649 ± 0.75
SNNDFLTSPAFGLLTG	0.066 ± 0.45
SNSFALALLPGGT	0.275 ± 0.75
SNSGIKGFGGMIPRV	3.92 ± 0.1
SNSNTIP	-0.676 ± 0.98
SNVVNFDNNEDYLDTCRYLI	0.734 ± 0.97
SNYFVSVDRGIWSCCYMCSF	7.474 ± 0.063
SNYYWVAWGDSPLQVHP	0.626 ± 0.81
SPFASVEEFELL	0.124 ± 0.33
